The series is described as follows: self-splicing fitness, log relative to wild type (ln ratio); higher = more splicing; Tetrahymena group I intron in knt gene, E. coli kanamycin selection, DiMSum; sequences stand for … in CUCUCU…GGAGGGAAAAGUUAUCAGGCAUGCACCUGGUAGCUAGUCUUUAAACCAAUAGAUUGCAUCGGUUUAAAAGGCAAGACCGUCAAAUUGCGGGAAAGGGGUCAACAGCCGUUCAGUACCAAGUCUCAGGGGAAACUUUGAGAUGGCCUUGCAAAGGGUAUGGUAAUAAGCUGACGGACAUGGUCCUAACCACGCAGCCAAGUCCUAAGUCAACAGAUCUUCUGUUGAUAUGGAUGCAGUUCACAGACUAAAUGUCGGUCGGGGAAGAUGUAUUCUUCUCAUAAGAUAUAGUCGGACCUCUCCUUAAUGGGAGCUAGCGGAUGAAGUGAUGCAACACUGGAGCCGCUGGGAACUAAUUUGUAUGCGAAAGUAUAUUGAUUAGUUUUGGAGUACUCGUGGUCG
The gist of the method: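 Pooled colonies went to amplicon sequencing on an Illumina HiSeq 2500 after six replicate transformations. The plates were LB agar with 100 μg/mL carbenicillin, 50 μM IPTG and 0.2% rhamnose, with or without 25 μg/mL kanamycin, incubated overnight at 37°C or 30°C. The E. coli BL21(DE3) library had all eight P1ex-region intron nucleotides randomised, the intron placed in the knt kanamycin-resistance gene on pET-22b(+). DiMSum fitness is the error-weighted combination of replicate fold changes, kanamycin against none, normalised to wild type.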

± gives the uncertainty stated by the source.

AAUGAGCAAUAUUACGUGAC: the “self-splicing fitness (ln)” value is, setting by setting: (30 °C) -3.08 ± 0.37; (37 °C) -1.25 ± 0.19.
Taken in the same sequence, the figures for CUGCAGCAAUAUUACGUUUC were -3.11 ± 0.14 and -3.1 ± 0.25.
In the case of UUCUAGCAAUAUUACGCCCG, the “self-splicing fitness (ln)” value reads like this: (30 °C) -1.09 ± 0.27; (37 °C) -0.74 ± 0.4.
Taken in the same sequence, the figures for CAGAAGCAAUAUUACGCAAA were -3.57 ± 0.35 and -1.81 ± 0.26.
On the same counts, the results for AAUCAGCAAUAUUACGUUUU are -0.639 ± 0.058 and -0.399 ± 0.085.
On the same counts, the results for CCUUAGCAAUAUUACGUAAU are -3.24 ± 0.29 and -1.81 ± 0.16.
As for UAGAAGCAAUAUUACGUGGA, the “self-splicing fitness (ln)” value is, setting by setting: (30 °C) -2.1 ± 0.13; (37 °C) -1.92 ± 0.16.
On the same counts, the results for CUGAAGCAAUAUUACGUUCG are 0.231 ± 0.06 and -0.181 ± 0.082.
On the same counts, the results for AACCAGCAAUAUUACGCCAC are -3.16 ± 0.19 and -2.97 ± 0.4.
As for GGCAAGCAAUAUUACGGAAG, the “self-splicing fitness (ln)” value (30 °C) was -2.84 ± 0.1 and the “self-splicing fitness (ln)” value (37 °C) is -1.37 ± 0.1.
On the same counts, the results for GCCUAGCAAUAUUACGAUCC are -1.08 ± 0.093 and 0.0207 ± 0.13.
Taken in the same sequence, the figures for CCGAAGCAAUAUUACGAAUU were -3.28 ± 0.4 and -2.87 ± 0.28.
On the same counts, the results for GUACAGCAAUAUUACGAAGC are -1.83 ± 0.17 and -1.5 ± 0.28.
As for AGGGAGCAAUAUUACGGGGU, the “self-splicing fitness (ln)” value is, setting by setting: (30 °C) -3.27 ± 0.36; (37 °C) -3.01 ± 0.31.
Taken in the same sequence, the figures for GCUAAGCAAUAUUACGAAUC were 0.136 ± 0.29 and -0.437 ± 0.35.
With GUCUAGCAAUAUUACGAAGA, the “self-splicing fitness (ln)” value is -3.16 ± 0.24 (30 °C) and -2.24 ± 0.2 (37 °C).
Taken in the same sequence, the figures for CUUAAGCAAUAUUACGUAUU were -4.4 ± 0.31 and -2.25 ± 0.23.
Taken in the same sequence, the figures for CUAUAGCAAUAUUACGGCUG were -1.02 ± 0.12 and -0.165 ± 0.15.
Taken in the same sequence, the figures for CGGAAGCAAUAUUACGGUCC were -3.37 ± 0.27 and -0.831 ± 0.13.
As for CAAUAGCAAUAUUACGAUCG, the “self-splicing fitness (ln)” value by setting is: (30 °C) 0.123 ± 0.069; (37 °C) -0.0654 ± 0.083.
Taken in the same sequence, the figures for UACGAGCAAUAUUACGUGGU were -2.86 ± 0.15 and -1.87 ± 0.23.
GAGAAGCAAUAUUACGCAUG: the “self-splicing fitness (ln)” value was -1.99 ± 0.11 (30 °C) and -1.04 ± 0.14 (37 °C).
Taken in the same sequence, the figures for UCCUAGCAAUAUUACGUAUA were -3.53 ± 0.28 and -2.03 ± 0.16.
As to AAAGAGCAAUAUUACGCACA, under “37 °C”, the “self-splicing fitness (ln)” value is -0.789 ± 0.28.
As to CAAUAGCAAUAUUACGCCUC, the “self-splicing fitness (ln)” value runs as follows: (30 °C) -3.74 ± 0.48; (37 °C) -2.17 ± 0.36.
For CUCGAGCAAUAUUACGACCC, where the note is “37 °C”, the “self-splicing fitness (ln)” value was -1.61 ± 0.46.
With UUUCAGCAAUAUUACGGCCU, the “self-splicing fitness (ln)” value was -3.87 ± 0.47 (30 °C) and -1.33 ± 0.25 (37 °C).
For the sequence CGGUAGCAAUAUUACGCUGC, where the note is “37 °C”, the “self-splicing fitness (ln)” value is -2.17 ± 0.49.
Consider AGAAAGCAAUAUUACGAUUC, for which the “self-splicing fitness (ln)” value was -1.03 ± 0.095 (30 °C) and -1.07 ± 0.14 (37 °C).
With CGAUAGCAAUAUUACGUGAA, the “self-splicing fitness (ln)” value is -4.38 ± 0.22 (30 °C) and -2.16 ± 0.16 (37 °C).
GAUGAGCAAUAUUACGGAAG: under “30 °C”, the “self-splicing fitness (ln)” value was -2.31 ± 0.33.
Turning to ACUUAGCAAUAUUACGGUCU, the “self-splicing fitness (ln)” value by setting is: (30 °C) -1.41 ± 0.088; (37 °C) 0.0181 ± 0.082.
Consider CCUUAGCAAUAUUACGCGCC, for which the “self-splicing fitness (ln)” value (30 °C) was -2.8 ± 0.4.
Turning to UGGUAGCAAUAUUACGAGUU, the “self-splicing fitness (ln)” value reads like this: (30 °C) -2.91 ± 0.24; (37 °C) -2.75 ± 0.24.
As for GGACAGCAAUAUUACGUUAG, the “self-splicing fitness (ln)” value is, setting by setting: (30 °C) -1.24 ± 0.066; (37 °C) -0.49 ± 0.085.
Turning to CUGUAGCAAUAUUACGAAGA, for the setting “37 °C”, the “self-splicing fitness (ln)” value is -2.29 ± 0.29.
In the case of GAGUAGCAAUAUUACGAAUG, the “self-splicing fitness (ln)” value by setting is: (30 °C) -3.18 ± 0.26; (37 °C) -1.89 ± 0.22.
Taken in the same sequence, the figures for CAAUAGCAAUAUUACGACUU were -3.35 ± 0.24 and -0.264 ± 0.23.
In the case of AGAGAGCAAUAUUACGGCAC, the “self-splicing fitness (ln)” value (37 °C) is -1.68 ± 0.18.
On the same count and under the same terms, the figure for CGGGAGCAAUAUUACGGGUC is -2.97 ± 0.48.

For the origin of these results see the supplement of paper PMC7877785.
